From patent publication US20120230999A1 (ARIZONA BOARD OF REGENTS A BODY CORPORATE OF THE STATE OF …, published 2012)
The star is where a group is joined. DABCYL = CN(C)c1ccc(/N=N/c2ccc(C(=O)*)cc2)cc1; EDANS = O=S(=O)(O)c1cccc2c(NCCN*)cccc12

B1: ASec-1B scFv (scFv)
scFv: DVLMETTQTPLTLSVTIGQPASISCKSSQSLLHTDGKTYLIWLLQRPGQSPKRLIYLVSKLDSGVPDRFTGSGSGTDFTLKISRVEAEDLGVYYCWQGTHFPQTFGGGTKLEIKRADAAPGGGGSGGGGSGGGGSGSESGGGLVKPGGSLKLSCAASGFAFSIYGMETSWFRQTPEKRLEWVATISGGDTYTYYPDSVKGRFTISRDNAKNNLFLQMETSSLRSEDTPLYFCGRSQKLHPWGQGLVTVSA
B2: ASec-1A scFv (scFv)
scFv: DVLMETTQTPLTLSVTIGQPASISCKSSQSLLHTDGKTYLIWLLQRPGQSPKRLIYLVSKLDSGVPDRFTGSGSGTDFTLKISRVEAEDLGVYYCWQGTHFPQTFGGGTKLEIKRADAAPGGGGSGGGGSGGGGSGSESGGGLVKPGGSLKLSCAASGFTFSIYGMETFWFRQTPEKRLEWVATISGGDTYTYYPDSVKGRFTISRDNAKNNLFLQMETSSLRSEDTPLYFCGRNHQITMETWGQGTLVTVSA

What was measured:
[1] = biological target: T1, internally quenched fluorogenic α-secretase substrate … (SMILES …); assay: cell-based or functional assay
T1 peptide: Ac-RE(EDANS)VHHQKLVFK(DABCYL)R-OH

[2] = biological target: T1, internally quenched fluorogenic …; assay: cell-based or functional assay

Row | Binder | specificity constant (kcat/KM) relative to parent ASec-1 scFv [1] [fold] | kcat (per min), hydrolysis of α-secretase Aβ fluorogenic substrate [2] [per min] | kcat/Km (µM/min), hydrolysis of α-secretase Aβ fluorogenic substrate [2] [µM/min]
1 | B1 | 2.8 | 61 | 40.4
2 | B2 | 5.6 | 34.8 | 58.1
